Experimental data: PMC12088426, “Activity and structure of human (d)CTP deaminase CDADC1” (Proceedings of the National Academy of Sciences of the …, 2025)
Numbering of substitutions follows the chain as printed. Names and notes keep the numbering of the source. Values joined by “and” are separate entries in the source; they are usually repeats but may differ in a detail not shown here. Identical values can stand only once.

Tests used:
CDADC1 (NYD-SP15) = biological target: T1, CDADC1 (NYD-SP15) (Homo sapiens, UniProt Q9BWV3, E400A); assay: cryo-EM structure of complex; format: binding; settings: hexamer, catalytically inactive variant
T1 construct: codon-optimized gene, E. coli BL21-CodonPlus(DE3)-RIL; homotrimer / hexamer (dimer of trimers), hexamer is the active form
T1 sequence (Q9BWV3 1-514 E400A): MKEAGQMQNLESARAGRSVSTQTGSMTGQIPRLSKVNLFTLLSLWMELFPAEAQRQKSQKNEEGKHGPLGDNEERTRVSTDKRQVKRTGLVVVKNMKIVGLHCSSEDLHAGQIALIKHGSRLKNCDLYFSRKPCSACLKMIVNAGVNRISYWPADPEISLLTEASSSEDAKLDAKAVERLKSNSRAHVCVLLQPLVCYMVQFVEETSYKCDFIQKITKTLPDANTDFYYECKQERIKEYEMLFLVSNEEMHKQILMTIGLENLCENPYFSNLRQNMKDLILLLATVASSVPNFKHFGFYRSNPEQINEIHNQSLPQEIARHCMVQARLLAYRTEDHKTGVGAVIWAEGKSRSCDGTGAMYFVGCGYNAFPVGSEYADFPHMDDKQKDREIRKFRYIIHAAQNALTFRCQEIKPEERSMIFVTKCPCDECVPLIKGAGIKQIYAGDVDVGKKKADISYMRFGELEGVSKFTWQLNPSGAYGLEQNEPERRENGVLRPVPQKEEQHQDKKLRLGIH

[1] = substrate: Nc1ccn([C@H]2C[C@H](O)[C@@H](COP(=O)(O)OP(=O)(O)OP(=O)(O)O)O2)c(=O)n1; assay: fluorescent ammonia detection, initial velocities, allosteric sigmoidal fit; format: biochemical, Homo sapiens; settings: Low Salt Reaction Buffer; 0.2 uM CDADC1 (monomer); Hill coefficient 1.22
[2] = substrate: Nc1ccn([C@@H]2O[C@H](COP(=O)(O)OP(=O)(O)OP(=O)(O)O)[C@@H](O)[C@H]2O)c(=O)n1; assay: as above; format: biochemical, Homo sapiens; settings: Low Salt Reaction Buffer; 0.3 uM CDADC1 (monomer); Hill coefficient 1.6
[3] = substrate: Nc1ccn([C@H]2C[C@H](O)[C@@H](COP(=O)(O)O)O2)c(=O)n1; assay: as above; format: biochemical, Homo sapiens; settings: Low Salt Reaction Buffer; 0.3 uM CDADC1 (monomer); Hill coefficient 1.8
[4] = biological target: the molecule itself; assay: cryo-EM structure; single-particle cryo-EM of CDADC1 E400A alone, with dCTP and with 5-methyl-dCTP; C3 (trimer) or D3 (dimer of trimers) symmetry imposed; maps 2.4 to 3.0 A
[5] = biological target: the molecule itself; assay: mass photometry; Refeyn TwoMP; CDADC1 at ~0.06 uM (monomer), room temperature, 10 min, without a ligand or with 1 mM dCTP (dCTP stabilised against dissociation); hexamers dissociated to trimers and monomers over time; hexamer = dimer of trimers

Cc1cn([C@H]2C[C@H](O)[C@@H](COP(=O)(O)OP(=O)(O)OP(=O)(O)O)O2)c(=O)nc1N [5mdCTP]
cryo-EM structure of complex (CDADC1 (NYD-SP15); CTD active site, less clear map than dCTP): a hexamer with bound 5mdCTP (PDB: 9HFT)

Nc1ccn([C@H]2C[C@H](O)[C@@H](COP(=O)(O)OP(=O)(O)OP(=O)(O)O)O2)c(=O)n1 [dCTP]
cryo-EM structure of complex (CDADC1 (NYD-SP15); one dCTP per protomer in CTD active site, N4 coordinates Zn2+): a hexamer with bound dCTP (PDB: 9HFS)

B1: CDADC1 (NYD-SP15) (Homo sapiens) (protein)
chain: T1 sequence (Q9BWV3 1-514 E400A) with A400E
notes: codon-optimized gene, E. coli BL21-CodonPlus(DE3)-RIL; homotrimer / hexamer (dimer of trimers), hexamer is the active form
K0.5 [1]: 0.2 mM
kcat [1]: 3.5 s⁻¹
K0.5 [2]: 0.7 mM
kcat [2]: 5.0 s⁻¹
K0.5 [3]: 5 mM
kcat [3]: 8.5 s⁻¹

B2: human CDADC1 E400A variant (enzyme, UniProt Q9BWV3 1-514, looked up)
chain: T1 sequence (Q9BWV3 1-514 E400A)
notes: CDADC1 (NYD-SP15), human, 514 residues, catalytic glutamate E400 changed to alanine; expressed from a codon-optimized gene; This variant was used for all cryo-EM datasets; source: E. coli BL21-CodonPlus (DE3)-RIL, purified (His-trap, Heparin HP, Superdex 200 Increase)
stoichiometry N [4]: 3 and 6

B3: human CDADC1 (enzyme, UniProt Q9BWV3 1-514, looked up)
chain: T1 sequence (Q9BWV3 1-514 E400A) with A400E
notes: CDADC1 (NYD-SP15), human, 514 residues, expressed from a codon-optimized gene; Complete methods are in the SI Appendix; also called NYD-SP15; source: E. coli BL21-CodonPlus (DE3)-RIL, purified (His-trap, Heparin HP, Superdex 200 Increase)
stoichiometry N [5]: 3 and 6
